Data set [1] concerns T1, AnLexA (Anabaena sp. strain PCC 7120), ORF:0695c96d.
T1 sequence: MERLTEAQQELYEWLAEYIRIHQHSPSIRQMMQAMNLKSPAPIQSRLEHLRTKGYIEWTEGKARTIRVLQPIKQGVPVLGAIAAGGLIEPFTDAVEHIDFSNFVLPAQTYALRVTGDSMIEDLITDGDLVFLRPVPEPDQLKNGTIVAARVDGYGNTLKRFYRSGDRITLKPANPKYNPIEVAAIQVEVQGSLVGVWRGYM
Briefly: EMSA. The note with it: 20 mM Tris-Cl pH 7.5, 1 mM EDTA, 20 ul, RT 30 min; 10% native PAGE in 0.5x TBE. (A gel shift assay detects complexes by their altered migration in electrophoresis.)

The subject of data set [2] is T2, AzuR (Anabaena sp. strain PCC 7120), ORF:06435f25.
T2 sequence: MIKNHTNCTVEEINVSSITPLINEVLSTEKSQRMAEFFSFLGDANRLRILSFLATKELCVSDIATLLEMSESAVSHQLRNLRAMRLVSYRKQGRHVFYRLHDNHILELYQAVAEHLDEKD
Briefly: EMSA. The note with it: 20 mM Tris-Cl pH 7.5, 1 mM EDTA, 20 ul, RT 30 min; 10% native PAGE in 0.5x TBE.

Data set [3] has as its target AzuR (Alr0831) (Anabaena sp. strain PCC 7120). The experiment in a line: cross-linking; purified AzuR (5 ug) with 10 mM glutaraldehyde, room temperature, 10-15 min, 10 mM Tris pH 7.5; cracking buffer without DTT; 15% SDS-PAGE, Coomassie.
Data set [4] has the same target. The experiment in a line: SEC; Superdex 75, 20 mM Tris, 100 mM NaCl, pH 7.5, 25 °C, 0.5 ml/min; calibrated with gel filtration markers. In general terms: Size exclusion chromatography separates by hydrodynamic size, large species first.

Broadly, the stoichiometry N is the number of molecules, sites or subunits per partner or assembly.

For “AAACGTATTATATAACCTAATTGTTACATTTTATTAAGCAATACTTGAACATCTGTTCAGGTATTGTAGTGTAATCACAAGTGAAAACGGAGGAAATAAT (double strand) [PnmtA (100 bp upstream of nmtA ORF)]”, the binding entry in data set [1] is given as “no binding”; in data set [2], “binds”.

As for AzuR (Alr0831) (natural protein), the stoichiometry N in data set [3] and in data set [4] was 2 throughout.

Source of the values: article PMC8790569.
